# Test results: US20110014201A1
# Target: Recombinant human IL-18 (Peprotech 200-18) (human) (UniProt Q14116)
# Assay: cell-based or functional assay
# Sequence of Recombinant human IL-18 (Peprotech 200-18) (human) (Q14116 37-193 limits assumed): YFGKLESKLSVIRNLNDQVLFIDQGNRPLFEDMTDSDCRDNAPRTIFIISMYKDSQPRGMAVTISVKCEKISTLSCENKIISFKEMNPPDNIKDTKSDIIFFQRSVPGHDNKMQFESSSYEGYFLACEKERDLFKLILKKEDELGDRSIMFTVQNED
# Sequence of recombinant IL-18BP/Fc chimera (R&D Systems, 119-BP) (O95998 31-194, change not shown): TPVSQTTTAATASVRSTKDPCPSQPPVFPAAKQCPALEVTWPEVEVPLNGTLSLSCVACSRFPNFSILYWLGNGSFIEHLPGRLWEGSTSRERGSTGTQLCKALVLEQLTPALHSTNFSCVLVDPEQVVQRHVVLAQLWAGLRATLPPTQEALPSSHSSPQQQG
substance,measurement,value
"recombinant IL-18BP/Fc chimera (R&D Systems, 119-BP) (from UniProt O95998 31-194) (Fc fusion)","ED50, inhibition of INF-γ release by KG1 cells",0.52 nM
